Here are results for 12 molecules from article PMC10977726 (PLOS ONE, 2024).

In general, IC50 refers to the point on the concentration scale where inhibition reaches its midpoint. A high value points to lower potency. As a reminder, the Kd is the free concentration of one partner at which half of the binding sites on the other are occupied at equilibrium, for simple one-to-one binding. A higher Kd goes with a looser complex.

Sequences and labels used below:
T1: biotin-Ly6E-rat IgG2b Fc (human | rat, biotin)
T1 chain: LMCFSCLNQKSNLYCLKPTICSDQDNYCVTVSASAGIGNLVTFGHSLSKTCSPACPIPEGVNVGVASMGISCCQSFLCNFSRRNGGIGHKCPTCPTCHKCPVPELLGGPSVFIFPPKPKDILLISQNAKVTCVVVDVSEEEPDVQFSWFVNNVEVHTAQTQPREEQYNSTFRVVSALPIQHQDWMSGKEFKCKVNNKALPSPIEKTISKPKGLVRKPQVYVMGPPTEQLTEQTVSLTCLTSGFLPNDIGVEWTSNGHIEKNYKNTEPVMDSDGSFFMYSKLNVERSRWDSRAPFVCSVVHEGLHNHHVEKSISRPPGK

The target in one assay is T2, human IgG Fc (Biotin-SP-ChromPure Human IgG, Fc fragment) (human, biotin (Biotin-SP)). Briefly: ELISA; […], room temperature; […]. Conditions: both partners purified. For orientation: In an ELISA, binding on a coated surface is turned into a signal by an enzyme label.
VGECVRGRCSQISCCSQFGYCGKGPKYCG (designed binder) [Ig-AMP-3] came in with an IC50 of 62 nM. On to VGECVRGRCSSISCCSQFGYCGKGPKYCG (designed binder) [Ig-AMP-4], for which half-maximal inhibition (IC50) required 151 nM.

For GCGYWYMQWFCKQDSDCLAGCVCRPKPECG (designed binder) [Ig-EET-4], the IC50 was 823 nM. VGECVRGRCSAISCCSQFGYCGKGPKYCG (designed binder) [Ig-AMP-2] displayed a concentration for half-maximal inhibition (IC50) of 41 nM. In the case of VGECVRGRCSKISCCSQFGYCGKGPKYCG (designed binder) [Ig-AMP-1], it took 55 nM to reach half-maximal inhibition (IC50).

Turning to GCQAHYWYRVWFCKQDSDCLAGCVCGPNGFCG (designed binder) [Ig-EET-1], half-maximal inhibition (IC50) was put at 447 nM.

A further assay addresses T2, human IgG Fc (Biotin-SP-ChromPure Human …). In words: SPR; […]; Biacore S200, […] (PBS with 0.05% Tween 20, pH 7.4); […]. Conditions: both partners purified.
VGECVRGRCSQISCCSQFGYCGKGPKYCG (designed binder) [Ig-AMP-3] returned an equilibrium dissociation constant (Kd) of 353 nM. VGECVRGRCSSISCCSQFGYCGKGPKYCG (designed binder) [Ig-AMP-4]: the Kd was greater than 1000 nM.

Regarding CKGKGAKCSRLMYDCCTGSCRSGKC [WT CON], the Kd was greater than 20000 nM. Consider GCGYWYMQWFCKQDSDCLAGCVCRPKPECG (designed binder) [Ig-EET-4], for which the Kd turned out to be 948 nM. The molecule VGECVRGRCSKISCCSQFGYCGKGPKYCG (designed binder) [Ig-AMP-1] registered a Kd of 243 nM. Molecule GCQAHYWYRVWFCKQDSDCLAGCVCGPNGFCG (designed binder) [Ig-EET-1] gave a Kd of 228 nM.

For another assay the target is unchanged. Briefly: SPR. Conditions: both partners purified.
In turn, GECKGKGAKCSSISIHDAHCCTGSCRSGKC (designed binder) [recombinant Ig-CON-5 after TEV protease digestion] displayed a Kd of 10 nM.

In the next assay the target is T1, biotin-Ly6E-rat IgG2b Fc. Briefly: SPR; […]; Biacore S200, […] (PBS with 0.05% Tween 20, pH 7.4); […]. Conditions: both partners purified. (Surface plasmon resonance follows binding to a sensor surface in real time, without labels.)
Consider GCAIYHMGWMFQCKQDSDCLAGCVCGPNGFCG (designed binder) [L-EET-7], for which the Kd stood at 22 nM. The molecule GCNMYSGPWRYFCKQDSDCLAGCVCGPNGFCG (designed binder) [L-EET-5] yielded a Kd greater than 20000 nM. Molecule GCQIYQSQWSYLCKQDSDCLAGCVCGPNGFCG (designed binder) [L-EET-8] returned a Kd greater than 20000 nM.

The target in another assay is T3, biotin-PDGF-bb (human, UniProt P01127 82-190, biotin).
T3 construct: also called human platelet-derived growth factor
T3 sequence (P01127 82-190): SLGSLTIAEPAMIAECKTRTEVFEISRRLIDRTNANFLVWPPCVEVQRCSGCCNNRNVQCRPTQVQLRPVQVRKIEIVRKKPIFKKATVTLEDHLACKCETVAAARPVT
The description is as above. The settings on record: both partners purified.
Take GCAFEGESCNVQFYPCCVSMKLMCIPGNPDGTCYYL (designed binder) [P-AST-3]: the Kd was greater than 50000 nM.
